Laboratory results from FireProtDB (doi:10.1021/bi00181a602).
Several values for one entry are separate records, joined by “and”; a condition that tells them apart may be missing. Equal entries are not always repeated.

Settings: Mus musculus; pH 3.5; 23 °C; GdnHCl; Fluorescence; citrate-phosphate 100 mM; reversible: yes; whole UniProt chain shown

B1: Neurotrophin-3 wild type, P20181 (protein)
chain: MSILFYVIFLAYLRGIQGNSMDQRSLPEDSLNSLIIKLIQADILKNKLSKQMVDVKENYQSTLPKAEAPREPEQGEATRSEFQPMIATDTELLRQQRRYNSPRVLLSDSTPLEPPPLYLMEDYVGNPVVANRTSPRRKRYAEHKSHRGEYSVCDSESLWVTDKSSAIDIRGHQVTVLGEIKTGNSPVKQYFYETRCKEARPVKNGCRGIDDKHWNSQCKTSQTYVRALTSENNKLVGWRWIRIDTSCVCALSRKIGRT
- denaturant m value: 3.4 kcal/mol/M and 4 kcal/mol/M and 5.1 kcal/mol/M
- denaturant midpoint (higher = more stable): 1.4 M and 2.2 M and 2.1 M
- unfolding free energy: 12.7 kcal/mol and 17 kcal/mol and 19 kcal/mol
